Results published in article PMC5606203.

B1: AtND (Arabidopsis thaliana) (protein)
chain: MAEEHFDVLTKSGEKTGVSKPRGEVHRDGDYHRAVHVWIFVETTQQLLLQLRSDDKDSWPGQWDISSAGHISAGDTSLLSAQRELEEELGVKLPKDAFEKIFVFLQECVTNDGKFINNEFNDVYLVTILHPIPLEAFTLQKEEVSAVKYVPYEEYRNFLSKEDPAYVPYDVNGEYGKLFDIIRQRCQVNTEARSLSLQKQLQRYSPVTLEAKLTELSEADQKALGLIVKAAKIMDDIFYEQVWNSNPALRDWLKDHANASKLDKLKWDYFTINKSPWSSLDENEAFLSTADSAVKLLPGATKAIAGWKGLEYRAAFPVTKPPGANFYPPDMDKMEFTLWLNGLTEEQKHAATGFFSVIKRRSEANLDASDHLASSTKKLPDSNSDLYSIPYSEIYRPFLKKASEFLQKAGDLVSSPSLKKLLHSKAEAFLSNEYYESDIAWMDLDSKLDITIGPYETYEDEIFGYKATFETFIGIRDDKATADLKLFGDNLKLLEDNLPLESVYKSTDVSAAPIRVIQLIYNSGDVKGPQTVAYNLPNDEKIVKDRGTSMVMLKNVQEAKFEHILKPIAEITISKEQRGLVDFDSFFTHTICHECCHGIGPHTITLPGGQTSTVRKELQEVHSAMEEAKADIVGLWALKFLITKGLLSKSMVESMYVSFLAGCFRSIRFGLTEAHGKGQALQFNYLYEKGAFVFHEDSTFSVDFAKIEGAVESLSHEILTIQGKGDKNAATLLLNKYCTITGPLKTALENLERVKVPVDISPTFPLAEALMN
B2: PpND (Physcomitrium patens) (protein)
chain: MEGFQEEFSLGECLDVLTAAGLRTGDVKKRHLVHADGDYHRAVHVWLFVESTQELVLQKRADCKDSWPGLWDISSAGHISAGDTSLLTARRELQEELGITLPADAFEFLFDYLQECVINGGKYINNEYNDVYLVTLVDHIPVEAFTLQETEVSAVKYMKWQDYEDAVRKEDSSYVPCDVDGGYSALFSALRRRYEVDTSAKLEELQMHINRYVPVEIHGETTGLSKGDLLALSDTIRAAKLLDRIFLEQEWATNPALKDSLQAASGKSELDRLKFAYYLINKSPWSILDENDAFLTTADSAIQIAEGAVDESVTWGGKVRYRAAFPVEKAPGANFYPVDMDKEEFQAWKDGLDKGQQADATSFFTTIRRSGDIHDADGAKVHDLKIVPYSKEYATILKEASYLLHKAGDSAENPSLKRLLKAKADAFLSNDYYESDIAWMELDSPLDVTIGPYETYEDGLFGYKATFEAFIGIRDDEATQRLKLFSHNLQEMEDNLPMDDEYKSKTVTFSPIRVIQLLYNSGDVKGPQTVAFNLPNDDRIVKERGTAMVMLKNISQAKFDYILLPIANVCVEASQRGAVDFDSFFTHTICHECCHGIGPHNIVTPDGRASTVRLELQEVYSAIEEAKADIVGLWALHFLVDKGLLPRSLENTMYVSFLAGCFRSIRFGLEEAHGKGQALQFNFILEKGGFSYHPDGTFSVDYTKVRQCVEDLSRLILTIEAKGDKAGAEALLAKYAALTPQLQQSFDALQDVQVPVDIFPTFKLLDDIKL

Assays:
Test in all cases: initial rates, colorimetric 2-naphthylamide release
[1] = substrate: C[C@H](N)C(=O)N[C@@H](CCCNC(=N)N)C(=O)Nc1ccc2ccccc2c1; assay type: biochemical, Arabidopsis thaliana; conditions: 25 °C, pH 7.9, Tris-HCl (I = 0.01), 75 µM CoCl2, DPP III site
[2] = substrate: N=C(N)NCCC[C@H](NC(=O)[C@@H](N)CCCNC(=N)N)C(=O)Nc1ccc2ccccc2c1; assay type: biochemical, Arabidopsis thaliana; conditions: 25 °C, pH 7.9, Tris-HCl (I = 0.01), 75 µM CoCl2, DPP III site
[3] = substrate: N=C(N)NCCC[C@H](NC(=O)[C@@H]1CCCN1)C(=O)Nc1ccc2ccccc2c1; assay type: biochemical, Arabidopsis thaliana; conditions: 25 °C, pH 7.9, Tris-HCl (I = 0.01), 75 µM CoCl2, DPP III site
[4] = substrate: C[C@H](N)C(=O)N[C@@H](CCCNC(=N)N)C(=O)Nc1ccc2ccccc2c1; assay type: biochemical, Physcomitrium patens; conditions: 25 °C, pH 7.4, Tris-HCl (I = 0.01), 75 µM CoCl2, DPP III site
[5] = substrate: N=C(N)NCCC[C@H](NC(=O)[C@@H](N)CCCNC(=N)N)C(=O)Nc1ccc2ccccc2c1; assay type: biochemical, Physcomitrium patens; conditions: 25 °C, pH 7.4, Tris-HCl (I = 0.01), 75 µM CoCl2, DPP III site

| Protein | Km [1] [µM] | kcat [1] [s⁻¹] | kcat/Km [1] [M⁻¹ s⁻¹] | Km [2] [µM] | kcat [2] [s⁻¹] | kcat/Km [2] [M⁻¹ s⁻¹] | Km [3] [µM] | kcat [3] [s⁻¹] | kcat/Km [3] [M⁻¹ s⁻¹] | Km [4] [µM] | kcat [4] [s⁻¹] | Km [5] [µM] | kcat [5] [s⁻¹] |
| --- | --- | --- | --- | --- | --- | --- | --- | --- | --- | --- | --- | --- | --- |
| B1 | 5.0 ± 0.3 | 0.0415 ± 0.0035 | 8300 | 3.25 ± 1.12 | 0.002 ± 1.67e-05 | 615 | 40.85 ± 12.09 | 0.0372 ± 0.005 | 908 | – | – | – | – |
| B2 | – | – | – | – | – | – | – | – | – | 17.21 ± 0.75 | 0.0106 ± 0.00262 | 10.63 ± 1.72 | 0.0137 ± 0.003 |
